According to US20150231218A1 (MAYO FOUNDATION FOR MEDICAL EDUCATION AND RESEARCH, published 2015):

Target: T1, HLA-A2 (class I MHC molecule) on TAP deficient T2 cells
T1 construct: whole, on cells; Target of the T2 HLA-A2 stabilization assay; The assay text says only HLA-A2; also called HLA-A*0201
Assay: T2 HLA-A2 stabilization assay
Excerpt: Many of the polypeptides that were processed in the assay were synthesized and tested for binding to the class I MHC molecule, HLA-A2, using the standard T2 HLA-A2 stabilization assay.

Does SLAFLPESFD (Synthetic peptide) [HER-2/neu polypeptide p373-382 (SLAFLPESFD)] bind?
Result: binds
